Data: doi:10.1101/2023.06.28.546964

Target: T1, PfAgo binding-pocket mutant (UniProt Q8U3D2)
T1 sequence: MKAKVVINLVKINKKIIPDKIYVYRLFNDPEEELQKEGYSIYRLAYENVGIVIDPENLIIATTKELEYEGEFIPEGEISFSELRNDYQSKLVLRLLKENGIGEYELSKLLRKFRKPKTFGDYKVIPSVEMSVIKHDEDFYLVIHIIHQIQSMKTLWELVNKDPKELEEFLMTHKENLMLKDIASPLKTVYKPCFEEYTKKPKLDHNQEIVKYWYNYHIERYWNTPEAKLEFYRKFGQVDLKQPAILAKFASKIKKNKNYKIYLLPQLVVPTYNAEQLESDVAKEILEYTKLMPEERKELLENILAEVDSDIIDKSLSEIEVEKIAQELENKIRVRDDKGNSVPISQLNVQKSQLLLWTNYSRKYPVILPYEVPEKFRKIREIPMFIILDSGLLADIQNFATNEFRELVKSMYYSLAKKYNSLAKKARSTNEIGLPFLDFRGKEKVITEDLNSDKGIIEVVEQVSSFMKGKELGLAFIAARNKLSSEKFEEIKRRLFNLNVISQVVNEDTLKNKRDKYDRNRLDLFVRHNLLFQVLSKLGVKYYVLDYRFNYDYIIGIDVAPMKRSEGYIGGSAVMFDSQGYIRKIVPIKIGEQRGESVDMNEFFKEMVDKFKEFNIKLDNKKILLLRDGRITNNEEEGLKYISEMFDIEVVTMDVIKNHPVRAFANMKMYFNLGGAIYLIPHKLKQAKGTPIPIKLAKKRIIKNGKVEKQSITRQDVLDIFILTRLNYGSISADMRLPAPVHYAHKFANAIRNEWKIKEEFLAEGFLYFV
Assay: fluorescence polarization

| Sequence | binding signal (fold affinity gain) | binding signal (fold affinity gain (up to)) (5' phosphate) |
| --- | --- | --- |
| ATATACTATACAACCTACTACCTCGTATAAATTTTTAAATAAATA [45nt DNA target] | 3 | – |
| TGACGTAGTAGGTTGT [guide_m4] | – | 2 |
